Earlier results in PMC6008173.

Molecular target: PCDH15 EC1-2 (Mus musculus) (UniProt Q99PJ1)

CDH23 EC1-2 (from UniProt Q99PF4)
Kd: 3000 nM
